Legend:
[1] = target: T1, CD36 (His-tagged recombinant human protein, Sino Biological, Life technologies, 70-80 kDa) (human, UniProt P16671 30-439); experiment: SPR; recombinant 2; kd2 of two-state fit
[2] = target: T1, CD36 (His-tagged recombinant human …); experiment: SPR; recombinant 1; kd2 of two-state fit
[3] = target: T1, CD36 (His-tagged recombinant human …); experiment: SPR; recombinant 2; kd1 of two-state fit
[4] = target: T1, CD36 (His-tagged recombinant human …); experiment: SPR; recombinant 1; kd1 of two-state fit
[5] = target: T1, CD36 (His-tagged recombinant human …); experiment: SPR; kd2 of two-state fit
[6] = target: T1, CD36 (His-tagged recombinant human …); experiment: SPR; kd1 of two-state fit
[7] = target: T1, CD36 (His-tagged recombinant human …); experiment: SPR; native 2; kd1 of two-state fit
[8] = target: T1, CD36 (His-tagged recombinant human …); experiment: SPR; native 1; kd2 of two-state fit
[9] = target: T1, CD36 (His-tagged recombinant human …); experiment: SPR; native 2; kd2 of two-state fit
[10] = target: T1, CD36 (His-tagged recombinant human …); experiment: SPR; native 1; kd1 of two-state fit

T1 sequence (P16671 30-439): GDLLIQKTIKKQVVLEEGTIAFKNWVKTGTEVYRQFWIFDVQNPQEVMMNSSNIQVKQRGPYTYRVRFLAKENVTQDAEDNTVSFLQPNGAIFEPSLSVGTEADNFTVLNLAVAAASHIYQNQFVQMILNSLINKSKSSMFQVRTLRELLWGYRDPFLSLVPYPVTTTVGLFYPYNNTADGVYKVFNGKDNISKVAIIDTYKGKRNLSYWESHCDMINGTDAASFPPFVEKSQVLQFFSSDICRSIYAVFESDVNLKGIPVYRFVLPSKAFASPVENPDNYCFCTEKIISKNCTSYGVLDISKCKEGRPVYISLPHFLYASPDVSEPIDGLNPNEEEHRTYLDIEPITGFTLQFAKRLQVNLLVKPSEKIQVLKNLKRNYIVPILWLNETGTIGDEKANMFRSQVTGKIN

B1: recombinant S100A12 (rS100A12) (natural protein)
chain: GPLGSMTKLEEHLEGIVNIFHQYSVRKGHFDTLSKGELKQLLTKELANTIKNIKDKAVIDEIFQGLDANQDEQVDFQEFISLVAIALKAAHYHTHKE
**Q.** B1 was tested. Which koff [1] did it give?
**A.** 0.00068 s⁻¹

**Q.** What about the koff [2] of the same binder?
**A.** 0.00037 s⁻¹

**Q.** And the koff [3]?
**A.** 0.019 s⁻¹

**Q.** What about the koff [4] of the same binder?
**A.** 0.0066 s⁻¹

B2: fluorescein-labeled rS100A12 (natural protein)
chain: GPLGSMTKLEEHLEGIVNIFHQYSVRKGHFDTLSKGELKQLLTKELANTIKNIKDKAVIDEIFQGLDANQDEQVDFQEFISLVAIALKAAHYHTHKE
modifications: fluorescein (NHS-fluorescein, 15 times molar excess; labeled residues not stated)
**Q.** B2 was tested. Which koff [5] did it give?
**A.** 0.001 s⁻¹

**Q.** And the koff [6]?
**A.** 0.014 s⁻¹

B3: commercially available native human S100A12 protein (nS100A12) (natural protein)
chain: MTKLEEHLEGIVNIFHQYSVRKGHFDTLSKGELKQLLTKELANTIKNIKDKAVIDEIFQGLDANQDEQVDFQEFISLVAIALKAAHYHTHKE
**Q.** With B3 as the binder, how does the koff [7] read?
**A.** 0.0092 s⁻¹

**Q.** What about the koff [8] of the same binder?
**A.** 0.00051 s⁻¹

**Q.** And the koff [9]?
**A.** 0.00056 s⁻¹

**Q.** And the koff [10]?
**A.** 0.0083 s⁻¹
